Experimental data reported in US20100086555A1.
Residue numbers refer to the chain shown, from its start. Like-named read-outs stand apart in the source and are kept apart here.

B1: FB139 (antibody, V domains shown)
VH: QVQLVQSGAEVKKAGSSVKVSCQSSGVTFSMYAVSWVRQAPGQGLEWMGGIIPLFGTTTYAQKFEGRLTITADTSTNMAYLELRSLRSEDTAVYFCARAGTTVTRFNWFDPWGQGTLVTVSS
VL: EVVLTQSPGTLSLSPGQRATLSCRASQSVSSSYLAWYQQKPGQAPRLLIYDASNRATGIPDRFSGSGSGTDFTLTISRLEPEDFAVYYCQQYGSSPYTFGQGTKLEIK
B2: FE53 (antibody, V domains shown)
VH: QVQLVQSGAEVKKPGSSVKVSCKASGVTSSNYPITWVRQAPGQGLEWMGGVLPLFGVTNYAQKFQGRVTISADKSTNTAYMELSSLRSEDTAVYYCARGKRPGYCSGGVCSSDYWGQGTLVTVSS
VL: DIQMTQSPSSLSASVGDRVSITCQASQDISRYLNWYQQKPGEAPKLLIYDASNLETGVPSRFSGSGSGTDFTFTISSLQPEDIATYFCQQYGYLPLTFGPGTKVDSK
B3: FE43 (antibody, V domains shown)
VH: QVHLVQSGAEVKKPGSSVRLSCSASGGPFSGFAISWLRQAPGQGLEWLGGISAVFGTATYAQKFQGRVTITADQFTSTSHMDLSRLTYDDTAVYYCARSGGYLPQNNWIDPWGQGTLVIVSS
VL: DIVMTQTPLSLSVTPGQPASISCKSSQSLLHSDGKTYLYWYLQKPGQSPQLLIYEVSNRFSGVPDRFSGSGSGTDFTLKISRVEAEDVGVYYCMQNILLPLTFGGGTKVEIK
B4: FC6 (antibody, V domains shown)
VH: QGQLVQSGAEVKKSGSSVKVSCKTSGGTFNSHAISWVRQAPGQGLEWIGGIIPMFGTTNYAQKLKGRIAITADQLPTTAYLELSSLRSEDTAVYYCARGQRYYYDRDGMDVWGQGTMVTVSS
VL: B3 VL with D1E, K24R, S48P, Y54S, S57F, N96S, I97L, L98Q

Assays:
[1] = biological target: H1 HA A/SI/3/06 (ELISA antigen) (influenza A virus A/SI/3/06 (H1)); test: ELISA
[2] = biological target: H1 HA A/Texas/3/99 (ELISA antigen) (influenza A virus A/Texas/3/99 (H1)); test: ELISA
[3] = biological target: H5 HA A/INDO/5/05 (ELISA antigen) (influenza A virus A/INDO/5/05 (H5N1)); test: ELISA
[4] = biological target: H9 HA A/HK/1073/99 (ELISA antigen) (influenza A virus A/HK/1073/99 (H9)); test: ELISA
[5] = biological target: recombinant trimeric H5 HA (A/VN/1203/04) (influenza A virus A/VN/1203/04 (H5N1)); test: ELISA
[6] = biological target: H1 HA A/NC/20/99 (on infectious virus) (influenza A virus A/NC/20/99 (H1N1)); test: cell-based or functional assay
[7] = biological target: H1 HA A/PR/8/34 (on infectious virus) (influenza A virus A/PR/8/34 (H1N1)) (UniProt P03452); test: cell-based or functional assay
[8] = biological target: H1 HA A/SI/3/06 (on infectious virus) (influenza A virus A/SI/3/06 (H1N1)); test: cell-based or functional assay
[9] = biological target: H2 HA A/JP/305/57 (on infectious virus) (influenza A virus A/JP/305/57 (H2N2)) (UniProt P03451); test: cell-based or functional assay
[10] = biological target: H5 HA A/Anhui/1/5 (on pseudotypes) (influenza A virus A/Anhui/1/5 (H5N1)); test: cell-based or functional assay
[11] = biological target: H5 HA A/HK/213/03 (on pseudotypes) (influenza A virus A/HK/213/03 (H5N1)); test: cell-based or functional assay
[12] = biological target: H5 HA A/HK/491/97 (on pseudotypes) (influenza A virus A/HK/491/97 (H5N1)); test: cell-based or functional assay
[13] = biological target: H5 HA A/INDO/5/05 (on pseudotypes and on infectious virus) (influenza A virus A/INDO/5/05 (H5N1)); test: cell-based or functional assay
[14] = biological target: H5 HA A/VN/1194/04 (on pseudotypes) (influenza A virus A/VN/1194/04 (H5N1)); test: cell-based or functional assay
[15] = biological target: H5 HA A/VN/1203/04 (on pseudotypes and on infectious virus) (influenza A virus A/VN/1203/04 (H5N1)); test: cell-based or functional assay
[16] = biological target: H5 HA A/WS/Mong/244/05 (on pseudotypes) (influenza A virus A/WS/Mong/244/05 (H5N1)); test: cell-based or functional assay
[17] = biological target: H9 HA A/HK/1073/99 (on infectious virus) (influenza A virus A/HK/1073/99 (H9N2)); test: cell-based or functional assay
[18] = biological target: H9 HA A/ck/HK/G9/97 (on infectious virus) (influenza A virus A/ck/HK/G9/97 (H9N2)); test: cell-based or functional assay
[19] = biological target: recombinant trimeric H5 HA (A/VN/1203/04) (influenza A virus A/VN/1203/04 (H5N1)); test: competition ELISA on recombinant trimeric H5 HA; competitor C179
[20] = biological target: recombinant trimeric H5 HA (A/VN/1203/04) (influenza A virus A/VN/1203/04 (H5N1)); test: competition ELISA on recombinant trimeric H5 HA; competitor FLD21
[21] = biological target: H3 HA A/WY/3/03 (on infectious virus) (influenza A virus A/WY/3/03 (H3N2)); test: cell-based or functional assay
[22] = biological target: H1 HA A/CA/07/09 (on infectious virus) (influenza A virus A/CA/07/09 (H1N1)); test: cell-based or functional assay
[23] = biological target: H1 HA A/NJ/76 (on infectious virus) (influenza A virus A/NJ/76 (H1N1)); test: cell-based or functional assay
[24] = biological target: H1 HA A/swine/Iowa/31 (on infectious virus) (influenza A virus A/swine/Iowa/31 (H1N1)); test: cell-based or functional assay
[25] = biological target: H6 HA A/teal/HK/WN312/97 (on infectious virus) (influenza A virus A/teal/HK/W312/97 (H6N1)); test: cell-based or functional assay
[26] = biological target: H1 HA A/CA/07/09 (on infectious virus) (influenza A virus A/CA/07/09 (H1N1)); test: cell-based or functional assay; remark: listed apart in the source
[27] = biological target: H1 HA A/NJ/76 (on infectious virus) (influenza A virus A/NJ/76 (H1N1)); test: cell-based or functional assay; remark: listed apart in the source
[28] = biological target: H1 HA A/PR/8/34 (on infectious virus) (influenza A virus A/PR/8/34 (H1N1)) (UniProt P03452); test: cell-based or functional assay; remark: listed apart in the source
[29] = biological target: H1 HA A/swine/Iowa/31 (on infectious virus) (influenza A virus A/swine/Iowa/31 (H1N1)); test: cell-based or functional assay; remark: listed apart in the source
[30] = biological target: H5 HA A/VN/1203/04 (on pseudotypes and on infectious virus) (influenza A virus A/VN/1203/04 (H5N1)); test: cell-based or functional assay; remark: listed apart in the source

Binder | K50 [1] | K50 [2] | K50 [3] | K50 [4] | K50 [5] | Neutralization of infectious viruses (IC50) [6] | Neutralization of infectious viruses (IC50) [7] | Neutralization of infectious viruses (IC50) [8] | Neutralization of HA-pseudotypes (IC90) [10] | Neutralization of HA-pseudotypes (IC90) [11] | Neutralization of HA-pseudotypes (IC90) [12] | Neutralization of HA-pseudotypes (IC90) [13] | Neutralization of infectious viruses (IC50) [13] | Neutralization of HA-pseudotypes (IC90) [14] | Neutralization of HA-pseudotypes (IC90) [15] | Neutralization of HA-pseudotypes (IC90) [16] | Neutralization of infectious viruses (IC50) [17] | Neutralization of infectious viruses (IC50) [18] | Competition (%) [19] | Competition (%) [20] | further results
B1 | 1.38 µg/mL | 0.06 µg/mL | 0.163 µg/mL | 0.066 µg/mL | 0.033 µg/mL | 36 µg/mL | 5 µg/mL | 4 µg/mL | 0.022 µg/mL | 0.019 µg/mL | 0.019 µg/mL | 0.106 µg/mL | 36 µg/mL | 0.04 µg/mL | 0.034 µg/mL | 0.035 µg/mL | 20 µg/mL | 6 µg/mL | 100% | < 20% | Neutralization of infectious viruses (IC50) [9]: 50 µg/mL; Neutralization of infectious viruses (IC50) [15]: 36 µg/mL
B2 | 0.375 µg/mL | 0.015 µg/mL | 0.084 µg/mL | 0.014 µg/mL | 0.015 µg/mL | 37 µg/mL | – | 6 µg/mL | 0.065 µg/mL | 0.066 µg/mL | 0.046 µg/mL | 0.491 µg/mL | – | 0.008 µg/mL | 0.098 µg/mL | 0.077 µg/mL | 8 µg/mL | 2 µg/mL | 100% | < 20% | Neutralization H1N1 IC90 [6]: 6.2 µg/mL; Neutralization H1N1 IC90 [8]: 6.2 µg/mL; Neutralization H3N2 IC50 [21]: > 50 µg/mL; Neutralization H5pp IC90 [14]: 0.008 µg/mL; Neutralization H5N1 IC50 [15]: > 50 µg/mL; Neutralization H9N2 IC50 [18]: 0.1 µg/mL
B3 | 0.206 µg/mL | 0.013 µg/mL | 4.54 µg/mL | 0.307 µg/mL | 0.029 µg/mL | 40 µg/mL | 4 µg/mL | 9 µg/mL | 0.137 µg/mL | 0.07 µg/mL | 0.053 µg/mL | 0.39 µg/mL | 25 µg/mL | 0.061 µg/mL | 0.146 µg/mL | 0.186 µg/mL | 50 µg/mL | 4 µg/mL | 100% | < 20% | Hemagglutination inhibition titer [22]: < 5; Neutralization H1N1 IC90 [6]: 6.2 µg/mL; Hemagglutination inhibition titer [23]: < 5; Hemagglutination inhibition titer [7]: < 5; Neutralization H1N1 IC90 [8]: 6.2 µg/mL; Hemagglutination inhibition titer [24]: 20; Neutralization H3N2 IC50 [21]: > 50 µg/mL; Neutralization H5pp IC90 [14]: 0.03 µg/mL; Hemagglutination inhibition titer [15]: < 5; Neutralization H5N1 IC50 [15]: > 50 µg/mL; Neutralization of infectious viruses (IC50) [25]: 20 µg/mL; Neutralization H9N2 IC50 [18]: 0.02 µg/mL; Neutralization of infectious viruses (IC50) [26]: 4 µg/mL; Neutralization of infectious viruses (IC50) [27]: 9 µg/mL; Neutralization of infectious viruses (IC50) [28]: 1.5 µg/mL; Neutralization of infectious viruses (IC50) [29]: 3 µg/mL; Neutralization of infectious viruses (IC50) [30]: > 50 µg/mL
B4 | 1.47 µg/mL | 0.066 µg/mL | – | 0.15 µg/mL | 0.157 µg/mL | 40 µg/mL | 16 µg/mL | 18 µg/mL | 0.112 µg/mL | 0.077 µg/mL | 0.081 µg/mL | 0.242 µg/mL | 31 µg/mL | 0.061 µg/mL | 0.096 µg/mL | 0.073 µg/mL | 36 µg/mL | 9 µg/mL | 100% | < 20% | Neutralization H1N1 IC90 [6]: 12.5 µg/mL; Neutralization H1N1 IC90 [8]: 12.5 µg/mL; Neutralization H5pp IC90 [14]: 0.04 µg/mL; Neutralization of infectious viruses (IC50) [25]: 63 µg/mL
